Substitutions are numbered along the chain they refer to. Each block holds one binder with its values, some of them ahead of it.
Tests used:
[1] = target: T1, human CEACAM5 (hCEACAM-5, #4128-CM-050, R&D Systems) (human, UniProt P06731 35-685); test: ELISA; antigen coated at 0.5 µg/mL, bsAb titrated, anti-human kappa-HRP, luminescence [3/7) Multi39]
T1 construct: Bought protein; also called Human CEACAM5-His; monomeric human CEACAM5-His
T1 sequence (looked up): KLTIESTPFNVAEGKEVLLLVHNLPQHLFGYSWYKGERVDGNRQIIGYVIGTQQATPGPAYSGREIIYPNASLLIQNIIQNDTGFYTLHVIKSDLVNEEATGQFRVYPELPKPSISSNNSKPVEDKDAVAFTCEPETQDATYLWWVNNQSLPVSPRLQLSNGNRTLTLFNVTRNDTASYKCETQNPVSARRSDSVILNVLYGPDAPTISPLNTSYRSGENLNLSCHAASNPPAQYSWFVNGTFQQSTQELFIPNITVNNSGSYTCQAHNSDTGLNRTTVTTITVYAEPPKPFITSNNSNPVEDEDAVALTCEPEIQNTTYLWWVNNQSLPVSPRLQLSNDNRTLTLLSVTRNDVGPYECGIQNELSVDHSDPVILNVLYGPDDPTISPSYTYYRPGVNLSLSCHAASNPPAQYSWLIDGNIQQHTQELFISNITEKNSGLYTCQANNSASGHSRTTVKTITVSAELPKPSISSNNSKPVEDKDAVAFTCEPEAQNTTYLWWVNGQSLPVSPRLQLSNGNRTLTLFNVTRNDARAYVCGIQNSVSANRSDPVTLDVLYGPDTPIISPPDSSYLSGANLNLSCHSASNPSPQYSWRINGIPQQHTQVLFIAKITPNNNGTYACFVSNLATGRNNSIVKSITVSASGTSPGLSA
Method: (§1) 96-well plates were coated with 0.5 μg/mL antigen, hCEACAM-1 (2244-CM-050, R&D Systems), hCEACAM-5 (4128-CM-050, R&D Systems), hCEACAM-6 (3934-CM-050, R&D Systems) or CEACAM-8 (9639-CM-050, R&D Systems) in PBS over night at 4° C. After washing in PBS/0.05% Tween 20 (PBST), the plates were blocked with PBST, 2% BSA for at least 30 minutes at room temperature before a second round of washing. RUBY bsAbs, diluted in PBST, 0.5% BSA, were then added and allowed to bind for at least 1 hour at room temperature. […] Finally, a final round of washing was performed and bound complexes detected using SuperSignal Pico Luminescent as substrate and luminescence signals were measured using Fluostar Optima.

[2] = target: human CD40 expressed on cells (CD40 reporter cells, HEK Blue CD40L cells, B cells, Raji cells) (human, UniProt P25942 21-277); test: cell-based or functional assay
[3] = target: T2, human CEACAM1 expressed on CHO cells (human, UniProt P13688 35-526); test: flow cytometry on CEACAM1-transfected CHO cells, fluorochrome-conjugated anti-human IgG [1/2) B]
T2 construct: whole, on cells; also called CHO-CEACAM1; CEACAM1 on cells
T2 sequence (looked up): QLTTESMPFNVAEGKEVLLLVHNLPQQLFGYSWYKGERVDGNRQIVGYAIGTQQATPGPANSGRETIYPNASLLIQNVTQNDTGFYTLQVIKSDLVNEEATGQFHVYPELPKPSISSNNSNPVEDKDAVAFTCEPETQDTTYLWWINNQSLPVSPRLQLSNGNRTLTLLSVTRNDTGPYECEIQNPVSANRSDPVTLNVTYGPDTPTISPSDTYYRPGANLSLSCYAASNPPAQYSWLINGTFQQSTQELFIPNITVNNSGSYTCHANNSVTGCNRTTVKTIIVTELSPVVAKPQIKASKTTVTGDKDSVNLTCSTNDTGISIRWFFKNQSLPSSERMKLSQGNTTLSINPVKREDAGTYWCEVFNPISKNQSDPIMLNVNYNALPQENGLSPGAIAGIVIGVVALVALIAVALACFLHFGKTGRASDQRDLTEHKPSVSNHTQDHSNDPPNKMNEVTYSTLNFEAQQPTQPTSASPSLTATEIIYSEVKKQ
Text: The human CEACAM5 and CEACAM1 genes were cloned into pcDNA3.1, and the vector was subsequently stably transfected into CHO cells. […] Binding of the antibodies was detected using fluorochrome-conjugated anti-human IgG and analyzed using flow cytometry.

[4] = target: T1, human CEACAM5 (hCEACAM-5, #4128-CM-050, …); test: dual target ELISA; hCEACAM-5 coated, bsAb titrated, detection with biotinylated hCD40-muIg and streptavidin-HRP, luminescence; signal needs both targets [1/2) B]
Method: as §1

[5] = target: T3, CEACAM-8 (#9639-CM-050, R&D Systems) (UniProt P31997 35-320, limits assumed); test: ELISA; antigen coated at 0.5 µg/mL, bsAb titrated, anti-human kappa-HRP, luminescence [3/7) Multi40]
T3 construct: Bought protein
T3 sequence (looked up): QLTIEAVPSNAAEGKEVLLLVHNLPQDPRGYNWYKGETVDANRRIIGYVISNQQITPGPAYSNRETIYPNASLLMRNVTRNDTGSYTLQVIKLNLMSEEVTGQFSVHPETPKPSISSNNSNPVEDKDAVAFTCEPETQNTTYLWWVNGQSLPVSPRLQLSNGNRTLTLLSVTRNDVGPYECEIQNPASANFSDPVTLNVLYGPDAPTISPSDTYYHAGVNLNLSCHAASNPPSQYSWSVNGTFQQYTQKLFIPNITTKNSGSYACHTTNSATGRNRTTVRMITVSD
Method: as §1

[6] = target: T4, human CEACAM5 expressed on cells (CHO-CEACAM5; MKN45, LS174T tumor cells) (human, UniProt P06731 35-685, GPI anchor on the C-terminal residue (685); heavily N-glycosylated); test: flow cytometry on LS174T tumor cells (intermediate CEACAM5), fluorochrome-conjugated anti-human IgG [2/3) E]
T4 construct: also called CEACAM5 on cells; CEA expressed on cells
T4 sequence: T1 sequence (looked up)

human CD40 expressed on cells (CD40 reporter cells, HEK Blue CD40L cells, B cells, Raji cells), sequence (P25942 21-277): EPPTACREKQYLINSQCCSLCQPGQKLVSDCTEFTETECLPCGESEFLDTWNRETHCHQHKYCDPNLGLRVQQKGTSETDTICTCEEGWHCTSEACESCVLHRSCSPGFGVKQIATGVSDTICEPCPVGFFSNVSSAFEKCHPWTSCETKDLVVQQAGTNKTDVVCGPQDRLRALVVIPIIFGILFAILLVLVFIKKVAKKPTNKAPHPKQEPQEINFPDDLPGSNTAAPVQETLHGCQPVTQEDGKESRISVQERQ

B1: Multi39 (bispecific antibody)
heavy 1: not shown
light: not shown
heavy 2: EVQLLESGGGLVQPGGSLRLSCAASGFTFYDHAMSWVREAPGKGLEWVSAISGSYGSTGYADSVKGRFTISRDNSKNTLYLQMNSLRAEDTAVYYCARWGGWAGDIDYWGQGTLVTVSSASTKGPSVFPLAPSSKSTSGGTAALGCLVKDYFPEPVTVSWNSGALTSGVHTFPAVLQSSGLYSLTSVVEVPSSSLGTQTYICNVNHKPSNTKVDKKVEPKSC
notes: Optimized RUBY format; copies: 2 + 2 + 2
- EC50 (read off the curve) [1]: 1 to 2 nM

B2: ffAC_05337 (bispecific antibody, human IgG1, kappa, L234A L235A)
heavy: not shown
light: DIQMTQSPSSLSASVGDRVTITCRASQSISSYLNWYQEKPGKAPKLLIYAASSLQSGVPSRFSGSGSGTDFTLTISSLQPEDFATYYCQQAGNPHTFGQGTKLEIKRTVAAPSVFIFPPSDEQLKSGTASVVCYLNNFYPREAKVQWKVDNALQSGNSQESVTEQDSKDSTYSLWSTLTLSKADYEKHKVYACEVTHQGLSSPVTKSFNRGEC
chain: EVQLLESGGGLVQPGGSLRLSCAASGFTFSTYGMHWVREAPGKGLEWLSYISGGSSYIFYADSVKGRFTISRDNSKNTLYLQMNSLRAEDTAVYYCARILRGGSGMDLWGQGTLVTVSSASTKGPSVFPLAPSSKSTSGGTAALGCLVKDYFPEPVTVSWNSGALTSGVHTFPAVLQSSGLYSLTSVVEVPSSSLGTQTYICNVNHKPSNTKVDKKVEPKSC
- EC50 (nM), HEK Blue CD40L SEAP reporter, CHO-CEACAM5 crosslinking, 0 Raji sink cells/well [2]: 0.04 nM
- EC50 (nM), HEK Blue CD40L SEAP reporter, CHO-CEACAM5 crosslinking, 10 000 Raji sink cells/well [2]: 0.08 nM
- EC50 (nM), HEK Blue CD40L SEAP reporter, CHO-CEACAM5 crosslinking, 30 000 Raji sink cells/well [2]: 0.11 nM
- EC50 (nM), HEK Blue CD40L SEAP reporter, CHO-CEACAM5 crosslinking, 90 000 Raji sink cells/well [2]: 0.41 nM

B6: AC_05337 (bispecific antibody)
heavy 1: not shown
light: B2 light
heavy 2: B2 chain with K65R, K76E, T78A, T185S
- EC50 (read off the curve) [6]: ~4 nM

Further lines, results first:

- binding result [3]: no binding (tested: 400 nM)
- EC50 (nM), HEK Blue CD40L SEAP reporter, CHO-CEACAM5 crosslinking, 0 Raji sink cells/well [2]: 0.03 nM
- EC50 (nM), HEK Blue CD40L SEAP reporter, CHO-CEACAM5 crosslinking, 10 000 Raji sink cells/well [2]: 0.06 nM
- EC50 (nM), HEK Blue CD40L SEAP reporter, CHO-CEACAM5 crosslinking, 30 000 Raji sink cells/well [2]: 0.13 nM
- EC50 (nM), HEK Blue CD40L SEAP reporter, CHO-CEACAM5 crosslinking, 90 000 Raji sink cells/well [2]: 0.36 nM
B3: Multi41 (bispecific antibody)
heavy 1: not shown
light: DIQMTQSPSSLSASVGDRVTITCRASQSISSYLNWYQEKPGKAPKLLIYAASSLQSGVPSRFSGSGSGTDFTLTISSLQPEDFATYYCQQWRSHLFTFGQGTKLEIKRTVAAPSVFIFPPSDEQLKSGTASVVCYLNNFYPREAKVQWKVDNALQSGNSQESVTEQDSKDSTYSLWSTLTLSKADYEKHKVYACEVTHQGLSSPVTKSFNRGEC
heavy 2: B2 chain
notes: as for B1

- EC50 (nM), HEK Blue CD40L SEAP reporter, CHO-CEACAM5 crosslinking, 0 Raji sink cells/well [2]: 0.04 nM
- EC50 (nM), HEK Blue CD40L SEAP reporter, CHO-CEACAM5 crosslinking, 10 000 Raji sink cells/well [2]: 0.06 nM
- EC50 (nM), HEK Blue CD40L SEAP reporter, CHO-CEACAM5 crosslinking, 30 000 Raji sink cells/well [2]: 0.11 nM
- EC50 (nM), HEK Blue CD40L SEAP reporter, CHO-CEACAM5 crosslinking, 90 000 Raji sink cells/well [2]: 0.36 nM
B4: Multi42 (bispecific antibody, human IgG1, kappa, L234A L235A)
heavy: not shown
light: EIVLTQSPGTLSLSPGERATLSCRASQSVSSSYLAWYQEKPGQAPRLLIYGASSRATGIPDRFSGSGSGTDFTLTISRLEPEDFAVYYCQQYWYPLTFGQGTKLEIKRTVAAPSVFIFPPSDEQLKSGTASVVCYLNNFYPREAKVQWKVDNALQSGNSQESVTEQDSKDSTYSLWSTLTLSKADYEKHKVYACEVTHQGLSSPVTKSFNRGEC
chain: B2 chain

- EC50 (read off the curve) [4]: ~0.6 nM
- binding result [5]: no binding (tested: 100 nM)
B5: Multi40 (bispecific antibody)
heavy 1: not shown
light: DIQMTQSPSSLSASVGDRVTITCRASQSISSYLNWYQEKPGKAPKLLIYAASSLQSGVPSRFSGSGSGTDFTLTISSLQPEDFATYYCQQSSHGPLLTFGQGTKLEIKRTVAAPSVFIFPPSDEQLKSGTASVVCYLNNFYPREAKVQWKVDNALQSGNSQESVTEQDSKDSTYSLWSTLTLSKADYEKHKVYACEVTHQGLSSPVTKSFNRGEC
heavy 2: B2 chain
notes: as for B1

From US20260273049A1 (ALLIGATOR BIOSCIENCE, published 2026)
